1 molecule from PMC5027281 (Nature Communications, 2016) can be followed below.

This assay has as its target Recombinant full-length HA of A/Vietnam/1203/04 (H5-VN04) (Influenza A virus A/Vietnam/1203/2004 …, UniProt Q5EP31). As to the kind of experiment: BLI. To be noted: both partners purified.

B1: 3I14 VLD94N variant IgG1 (antibody, V domains shown)
VH: QVQLLESGGGVVQPGRSLRLSCAASGFTFSNYGMHWVRQAPGKGLEWVAIISFDGSKKYYANSVKGRSTISRDNSKNTLSLQMNSLGPEDTALYYCAKLPSPYYFDSRFVWVAASAFHFWGQGILVTVSS
VL: NFMLTQPPSASGTPGQRVTISCSGSSSNIGGNTVHWFQQLPGTAPKLLIYTNSLRPSGVPDRFSGSKSGTSASLAISGLQSEDEADYYCAAWDNSLNGQVFGGGTKLTVL
Regarding B1, the Kd is 187 pM, the koff is 7.74e-05 s⁻¹ and the kon came out at 383000 M⁻¹ s⁻¹.

In general, Kd refers to the equilibrium constant for the complex coming apart. The term koff denotes the rate constant with which the complex falls apart. For orientation: kon means the second-order rate constant of association.
